The results in this text go back to article doi:10.1101/2022.06.04.494830, “The oncogenic fusion protein EWS-FLI1 promotes premature ageing of biomolecular condensates by catalyzing fibril formation” (bioRxiv, 2022).

In this assay the target is PU.1 DNA-binding domain (PU.1^DBD, PU.1 168-270) (human, UniProt P17947 168-270). Briefly: NMR titration; 1H,15N-HSQC of 50 uM 15N PU.1 168-270 in 50 mM sodium phosphate pH 6.5, 25 C, titrated with unlabeled EWS^LCD (2 mM stock in 20 mM CAPS pH 11) to 12.5, 25, 50, 100 and 150 uM (~3:1). The settings on record: both partners purified.

B1: EWS low-complexity domain (EWS^LCD, EWS 1-264) (domain or fragment)
chain: MASTDYSTYSQAAAQQGYSAYTAQPTQGYAQTTQAYGQQSYGTYGQPTDVSYTQAQTTATYGQTAYATSYGQPPTGYTTPTAPQAYSQPVQGYGTGAYDTTTATVTTTQASYAAQSAYGTQPAYPAYGQQPAATAPTRPQDGNKPTETSQPQSSTGGYNQPSLGYGQSNYSYPQVPGSYPMQPVTAPPSYPPTSYSSTQPTSYDQSSYSQQNTYGQPSSYGQQSSYGQQSSYGQQPPTSYPPQTGSYSQAPSQYSQQSSSYGQQ
notes: In the fluorescence microscopy 1% of the EWS^LCD carried DyLight 650 or 488, attached through a dye-labelled KLPETGG peptide with sortase; also called EWS^LCD,650; EWS^LCD,488; source: E. coli BL21 Star (DE3) or BL21 (DE3) pLysS, purified (IMAC or cation exchange, TEV cleavage, SEC; 20 mM CAPS pH 11); not shown: His tag (6 or 8 x), N-terminal, cleaved
Consider B1, for which the binding result is on record as “binds”.
